Numbered stars: 1 amine (or outer) side, 2 acyl side, 3 side chain; on linkers, the order of the positions; unused ones are H or OH. Bridge positions count the residues as written; N and C are the ends. Side chains are listed from the residue outwards. Ends that are not written are not given here. * marks the point of attachment. C20 diacid = O=C(O)CCCCCCCCCCCCCCCCCCC(=O)*; γGlu = O=C(O)[C@H](CCC(=O)[*:2])N[*:1]
Legend:
[1] = target: T1, human amylin receptor (amylin 3(a) receptor: human calcitonin receptor plus RAMP-3) (human, UniProt P30988 25-474; O60896 24-148); assay: cell-based or functional assay
T1 sequence (looked up) 1: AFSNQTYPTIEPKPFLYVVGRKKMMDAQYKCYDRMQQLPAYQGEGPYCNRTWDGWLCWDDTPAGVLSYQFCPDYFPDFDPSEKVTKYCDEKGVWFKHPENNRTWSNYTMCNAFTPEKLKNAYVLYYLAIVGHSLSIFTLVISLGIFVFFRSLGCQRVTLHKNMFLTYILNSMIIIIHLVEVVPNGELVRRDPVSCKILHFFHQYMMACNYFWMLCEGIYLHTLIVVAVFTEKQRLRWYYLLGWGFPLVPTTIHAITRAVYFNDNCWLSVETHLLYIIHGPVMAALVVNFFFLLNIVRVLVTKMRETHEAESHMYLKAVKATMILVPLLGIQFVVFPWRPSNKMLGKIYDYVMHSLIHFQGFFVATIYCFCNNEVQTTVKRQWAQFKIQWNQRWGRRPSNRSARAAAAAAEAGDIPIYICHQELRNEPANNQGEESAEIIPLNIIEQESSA
T1 sequence (looked up) 2: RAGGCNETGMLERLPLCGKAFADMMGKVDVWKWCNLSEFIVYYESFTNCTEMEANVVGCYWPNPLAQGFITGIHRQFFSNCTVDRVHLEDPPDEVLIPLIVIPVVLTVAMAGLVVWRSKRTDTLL

[2] = target: T2, human calcitonin receptor (human, UniProt P30988 25-474); assay: cell-based or functional assay
T2 sequence (looked up): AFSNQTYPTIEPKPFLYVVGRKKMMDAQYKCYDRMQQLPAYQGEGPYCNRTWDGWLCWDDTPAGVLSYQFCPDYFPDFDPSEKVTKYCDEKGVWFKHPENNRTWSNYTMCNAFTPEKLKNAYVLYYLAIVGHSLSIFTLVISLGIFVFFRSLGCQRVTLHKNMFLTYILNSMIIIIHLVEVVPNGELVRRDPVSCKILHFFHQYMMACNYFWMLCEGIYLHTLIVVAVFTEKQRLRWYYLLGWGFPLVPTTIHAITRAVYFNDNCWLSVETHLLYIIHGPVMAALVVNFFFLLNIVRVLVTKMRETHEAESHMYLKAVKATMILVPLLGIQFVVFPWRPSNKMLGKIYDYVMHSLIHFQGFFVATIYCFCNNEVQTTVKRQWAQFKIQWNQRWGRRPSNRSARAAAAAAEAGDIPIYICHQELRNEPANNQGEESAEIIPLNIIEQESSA

[3] = target: T1, human amylin receptor (amylin 3(a) …); assay: SPA competition binding, displacement of 125I-rat amylin, membranes of BHK amylin 3(a)/CRE-luc cells
In short: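 Membranes from BHK Amylin 3(a)/CRE-luc cells (35 ng/μL final) were mixed with SPA beads and test compounds in 50 mM Hepes pH 7.4 with 1 mM CaCl2, 5 mM MgCl₂, 0.1% OA and 0.02% Tween20. Incubation ran 120 min at 25° C with shaking; IC₅₀ came from one-site competition fitting.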

B1: N^ε1-[(4S)-4-carboxy-4-(19-carboxynonadecanoylamino)butanoyl]-[Asp14,Arg17,Pro21,Pro27,Pro34,Glu35]-h-amylin (peptide)
peptide: K([γGlu-C20 diacid])CNTATCATQRLADFLRHSSPNFGAIPSSTNVGPETY-NH2
modifications: disulfide 2-7; N-terminus assumed
SMILES: CC[C@H](C)[C@H](NC(=O)[C@H](C)NC(=O)CNC(=O)[C@H](Cc1ccccc1)NC(=O)[C@H](CC(N)=O)NC(=O)[C@@H]1CCCN1C(=O)[C@H](CO)NC(=O)[C@H](CO)NC(=O)[C@H](Cc1c[nH]cn1)NC(=O)[C@H](CCCNC(=N)N)NC(=O)[C@H](CC(C)C)NC(=O)[C@H](Cc1ccccc1)NC(=O)[C@H](CC(=O)O)NC(=O)[C@H](C)NC(=O)[C@H](CC(C)C)NC(=O)[C@H](CCCNC(=N)N)NC(=O)[C@H](CCC(N)=O)NC(=O)[C@@H](NC(=O)[C@H](C)NC(=O)[C@@H]1CSSC[C@H](NC(=O)[C@@H](N)CCCCNC(=O)CC[C@H](NC(=O)CCCCCCCCCCCCCCCCCCC(=O)O)C(=O)O)C(=O)N[C@@H](CC(N)=O)C(=O)N[C@@H]([C@@H](C)O)C(=O)N[C@@H](C)C(=O)N[C@@H]([C@@H](C)O)C(=O)N1)[C@@H](C)O)C(=O)N1CCC[C@H]1C(=O)N[C@@H](CO)C(=O)N[C@@H](CO)C(=O)N[C@H](C(=O)N[C@@H](CC(N)=O)C(=O)N[C@H](C(=O)NCC(=O)N1CCC[C@H]1C(=O)N[C@@H](CCC(=O)O)C(=O)N[C@H](C(=O)N[C@@H](Cc1ccc(O)cc1)C(N)=O)[C@@H](C)O)C(C)C)[C@@H](C)O
Ratio hCT/hAmylin funct. [1]: 3.9
hAmylin-R funct. EC50 (pM) [1]: 288 pM
hCTR funct. EC50 (pM) [2]: 1120 pM
IC50 [3]: 0.196 nM

K([γGlu-C20 diacid])CNTATCATQRLAEFLRHSSPNFGAIPSSTNVGPHTY-NH2 (disulfide 2-7)
hAmylin-R funct. EC50 (pM) [1]: 101 pM
hCTR funct. EC50 (pM) [2]: 1450 pM
IC50 [3]: 0.179 nM

B2: N^ε1-[(4S)-4-carboxy-4-(19-carboxynonadecanoylamino)butanoyl]-[Glu14,Arg17,Pro21,Pro27,His34,Glu35]-h-amylin (peptide)
peptide: K([γGlu-C20 diacid])CNTATCATQRLAEFLRHSSPNFGAIPSSTNVGHETY-NH2
modifications: disulfide 2-7; N-terminus assumed
SMILES: CC[C@H](C)[C@H](NC(=O)[C@H](C)NC(=O)CNC(=O)[C@H](Cc1ccccc1)NC(=O)[C@H](CC(N)=O)NC(=O)[C@@H]1CCCN1C(=O)[C@H](CO)NC(=O)[C@H](CO)NC(=O)[C@H](Cc1c[nH]cn1)NC(=O)[C@H](CCCNC(=N)N)NC(=O)[C@H](CC(C)C)NC(=O)[C@H](Cc1ccccc1)NC(=O)[C@H](CCC(=O)O)NC(=O)[C@H](C)NC(=O)[C@H](CC(C)C)NC(=O)[C@H](CCCNC(=N)N)NC(=O)[C@H](CCC(N)=O)NC(=O)[C@@H](NC(=O)[C@H](C)NC(=O)[C@@H]1CSSC[C@H](NC(=O)[C@@H](N)CCCCNC(=O)CC[C@H](NC(=O)CCCCCCCCCCCCCCCCCCC(=O)O)C(=O)O)C(=O)N[C@@H](CC(N)=O)C(=O)N[C@@H]([C@@H](C)O)C(=O)N[C@@H](C)C(=O)N[C@@H]([C@@H](C)O)C(=O)N1)[C@@H](C)O)C(=O)N1CCC[C@H]1C(=O)N[C@@H](CO)C(=O)N[C@@H](CO)C(=O)N[C@H](C(=O)N[C@@H](CC(N)=O)C(=O)N[C@H](C(=O)NCC(=O)N[C@@H](Cc1c[nH]cn1)C(=O)N[C@@H](CCC(=O)O)C(=O)N[C@H](C(=O)N[C@@H](Cc1ccc(O)cc1)C(N)=O)[C@@H](C)O)C(C)C)[C@@H](C)O
notes: also called compound 107
Ratio hCT/hAmylin funct. [1]: 6.3
hAmylin-R funct. EC50 (pM) [1]: 405 pM
hCTR funct. EC50 (pM) [2]: 2540 pM
IC50 [3]: 0.387 nM

B3: N^ε1-[(4S)-4-carboxy-4-(19-carboxynonadecanoylamino)butanoyl]-[Glu14,Arg17,Pro21,Pro27,Arg34,Glu35]-h-amylin (peptide)
peptide: K([γGlu-C20 diacid])CNTATCATQRLAEFLRHSSPNFGAIPSSTNVGRETY-NH2
modifications: disulfide 2-7; N-terminus assumed
SMILES: CC[C@H](C)[C@H](NC(=O)[C@H](C)NC(=O)CNC(=O)[C@H](Cc1ccccc1)NC(=O)[C@H](CC(N)=O)NC(=O)[C@@H]1CCCN1C(=O)[C@H](CO)NC(=O)[C@H](CO)NC(=O)[C@H](Cc1c[nH]cn1)NC(=O)[C@H](CCCNC(=N)N)NC(=O)[C@H](CC(C)C)NC(=O)[C@H](Cc1ccccc1)NC(=O)[C@H](CCC(=O)O)NC(=O)[C@H](C)NC(=O)[C@H](CC(C)C)NC(=O)[C@H](CCCNC(=N)N)NC(=O)[C@H](CCC(N)=O)NC(=O)[C@@H](NC(=O)[C@H](C)NC(=O)[C@@H]1CSSC[C@H](NC(=O)[C@@H](N)CCCCNC(=O)CC[C@H](NC(=O)CCCCCCCCCCCCCCCCCCC(=O)O)C(=O)O)C(=O)N[C@@H](CC(N)=O)C(=O)N[C@@H]([C@@H](C)O)C(=O)N[C@@H](C)C(=O)N[C@@H]([C@@H](C)O)C(=O)N1)[C@@H](C)O)C(=O)N1CCC[C@H]1C(=O)N[C@@H](CO)C(=O)N[C@@H](CO)C(=O)N[C@H](C(=O)N[C@@H](CC(N)=O)C(=O)N[C@H](C(=O)NCC(=O)N[C@@H](CCCNC(=N)N)C(=O)N[C@@H](CCC(=O)O)C(=O)N[C@H](C(=O)N[C@@H](Cc1ccc(O)cc1)C(N)=O)[C@@H](C)O)C(C)C)[C@@H](C)O
Ratio hCT/hAmylin funct. [1]: 6.5
hAmylin-R funct. EC50 (pM) [1]: 421 pM
hCTR funct. EC50 (pM) [2]: 2740 pM
IC50 [3]: 0.232 nM

B4: N^ε1-[(4S)-4-carboxy-4-(19-carboxynonadecanoylamino)butanoyl]-[Glu14,Arg17,Pro21,Pro27,His35]-h-amylin (peptide)
peptide: K([γGlu-C20 diacid])CNTATCATQRLAEFLRHSSPNFGAIPSSTNVGSHTY-NH2
modifications: disulfide 2-7; N-terminus assumed
SMILES: CC[C@H](C)[C@H](NC(=O)[C@H](C)NC(=O)CNC(=O)[C@H](Cc1ccccc1)NC(=O)[C@H](CC(N)=O)NC(=O)[C@@H]1CCCN1C(=O)[C@H](CO)NC(=O)[C@H](CO)NC(=O)[C@H](Cc1c[nH]cn1)NC(=O)[C@H](CCCNC(=N)N)NC(=O)[C@H](CC(C)C)NC(=O)[C@H](Cc1ccccc1)NC(=O)[C@H](CCC(=O)O)NC(=O)[C@H](C)NC(=O)[C@H](CC(C)C)NC(=O)[C@H](CCCNC(=N)N)NC(=O)[C@H](CCC(N)=O)NC(=O)[C@@H](NC(=O)[C@H](C)NC(=O)[C@@H]1CSSC[C@H](NC(=O)[C@@H](N)CCCCNC(=O)CC[C@H](NC(=O)CCCCCCCCCCCCCCCCCCC(=O)O)C(=O)O)C(=O)N[C@@H](CC(N)=O)C(=O)N[C@@H]([C@@H](C)O)C(=O)N[C@@H](C)C(=O)N[C@@H]([C@@H](C)O)C(=O)N1)[C@@H](C)O)C(=O)N1CCC[C@H]1C(=O)N[C@@H](CO)C(=O)N[C@@H](CO)C(=O)N[C@H](C(=O)N[C@@H](CC(N)=O)C(=O)N[C@H](C(=O)NCC(=O)N[C@@H](CO)C(=O)N[C@@H](Cc1c[nH]cn1)C(=O)N[C@H](C(=O)N[C@@H](Cc1ccc(O)cc1)C(N)=O)[C@@H](C)O)C(C)C)[C@@H](C)O
hAmylin-R funct. EC50 (pM) [1]: 425 pM
hCTR funct. EC50 (pM) [2]: 5580 pM
IC50 [3]: 0.992 nM

B5: N^ε1-[(4S)-4-carboxy-4-(19-carboxynonadecanoylamino)butanoyl]-[Glu14,Arg17,Pro21,Pro27,Pro34,Glu35]-h-amylin (peptide)
peptide: K([γGlu-C20 diacid])CNTATCATQRLAEFLRHSSPNFGAIPSSTNVGPETY-NH2
modifications: disulfide 2-7; N-terminus assumed
SMILES: CC[C@H](C)[C@H](NC(=O)[C@H](C)NC(=O)CNC(=O)[C@H](Cc1ccccc1)NC(=O)[C@H](CC(N)=O)NC(=O)[C@@H]1CCCN1C(=O)[C@H](CO)NC(=O)[C@H](CO)NC(=O)[C@H](Cc1c[nH]cn1)NC(=O)[C@H](CCCNC(=N)N)NC(=O)[C@H](CC(C)C)NC(=O)[C@H](Cc1ccccc1)NC(=O)[C@H](CCC(=O)O)NC(=O)[C@H](C)NC(=O)[C@H](CC(C)C)NC(=O)[C@H](CCCNC(=N)N)NC(=O)[C@H](CCC(N)=O)NC(=O)[C@@H](NC(=O)[C@H](C)NC(=O)[C@@H]1CSSC[C@H](NC(=O)[C@@H](N)CCCCNC(=O)CC[C@H](NC(=O)CCCCCCCCCCCCCCCCCCC(=O)O)C(=O)O)C(=O)N[C@@H](CC(N)=O)C(=O)N[C@@H]([C@@H](C)O)C(=O)N[C@@H](C)C(=O)N[C@@H]([C@@H](C)O)C(=O)N1)[C@@H](C)O)C(=O)N1CCC[C@H]1C(=O)N[C@@H](CO)C(=O)N[C@@H](CO)C(=O)N[C@H](C(=O)N[C@@H](CC(N)=O)C(=O)N[C@H](C(=O)NCC(=O)N1CCC[C@H]1C(=O)N[C@@H](CCC(=O)O)C(=O)N[C@H](C(=O)N[C@@H](Cc1ccc(O)cc1)C(N)=O)[C@@H](C)O)C(C)C)[C@@H](C)O
Ratio hCT/hAmylin funct. [1]: 5.2
hAmylin-R funct. EC50 (pM) [1]: 161 pM
hCTR funct. EC50 (pM) [2]: 841 pM
IC50 [3]: 0.14 nM
